# In patent US20100279383A1:
# Several values for one entry are separate records, joined by “and”; a condition that tells them apart may be missing. Identical values can stand only once.
# Target: anti-Savinase antibody
# Assay: ELISA, anti-Savinase antibody binding of the variant against Savinase as reference
row,Substance,Antibody binding capacity shown as Delta-binding
1,Savinase variant D181N (from UniProt P29600 1-269) (enzyme),2.9 fold
2,Savinase variant E136R (from UniProt P29600 1-269) (enzyme),2.8 fold
3,Savinase variant E136R + N140D (from UniProt P29600 1-269) (enzyme),2.1 fold
4,Savinase variant N18D (from UniProt P29600 1-269) (enzyme),2 fold
5,Savinase variant N140D + A172D (from UniProt P29600 1-269) (enzyme),3.8 fold
6,Savinase variant R170F (from UniProt P29600 1-269) (enzyme),2.4 fold
7,Savinase variant R170L + Q206E (from UniProt P29600 1-269) (enzyme),2.1 fold
8,Savinase variant R247E (from UniProt P29600 1-269) (enzyme),2 fold
9,Savinase variant R247H (from UniProt P29600 1-269) (enzyme),2 fold
10,Savinase variant R247K (from UniProt P29600 1-269) (enzyme),2 fold
11,Savinase variant R247Q (from UniProt P29600 1-269) (enzyme),2 fold
12,Savinase variant R275E (from UniProt P29600 1-269) (enzyme),2 fold
13,Savinase variant S57P + R170L (from UniProt P29600 1-269) (enzyme),2.1 fold
14,Savinase variant S57P + R170L + R247Q (from UniProt P29600 1-269) (enzyme),2.1 fold and 2 fold
15,Savinase variant S57P + Y167F + R247Q (from UniProt P29600 1-269) (enzyme),3 fold
16,Savinase variant Y167I + R170L + A194P + N218S (from UniProt P29600 1-269) (enzyme),3.2 fold
17,Savinase variant Y167I + R170L + N218S (from UniProt P29600 1-269) (enzyme),4.8 fold
